We go through two substances from PMC5583147.

For test [1], the target named is C3b-B complex (UniProt P01024). The test is described as follows: SPR; C3b amine-coupled on CM5 chip; Biacore T100, 25 C; HBS-N (10 mM HEPES pH 7.4, 150 mM NaCl) with 2 mM MgCl2; factor B 54 nM, factor D 20 nM, Lufaxin up to 1 uM injected in combinations. (In general: Surface plasmon resonance follows binding to a sensor surface in real time, without labels.)
Test [2] addresses C3b-B complex (UniProt P01024). The test is described as follows: SPR; C3b amine-coupled on CM5 chip; Biacore T100, 25 C; HBS-N with 2 mM NiCl2; factor B 54 nM, Lufaxin 1 uM, together or Lufaxin after formation of C3b-B.
The next test concerns the target C3b (UniProt P01024). The description is as above.

Sequence of Lufaxin (Q5WPU8 24-301 limits assumed): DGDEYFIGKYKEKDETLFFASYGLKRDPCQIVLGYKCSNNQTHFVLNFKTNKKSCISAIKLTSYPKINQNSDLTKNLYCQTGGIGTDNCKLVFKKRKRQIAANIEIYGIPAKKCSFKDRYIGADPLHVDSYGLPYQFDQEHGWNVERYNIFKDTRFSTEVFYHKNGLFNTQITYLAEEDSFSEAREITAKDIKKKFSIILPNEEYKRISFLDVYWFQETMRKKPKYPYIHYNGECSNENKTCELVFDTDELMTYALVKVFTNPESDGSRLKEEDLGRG
Sequence of UniProt P01024 (P01024 23-667, chain 1 of 2): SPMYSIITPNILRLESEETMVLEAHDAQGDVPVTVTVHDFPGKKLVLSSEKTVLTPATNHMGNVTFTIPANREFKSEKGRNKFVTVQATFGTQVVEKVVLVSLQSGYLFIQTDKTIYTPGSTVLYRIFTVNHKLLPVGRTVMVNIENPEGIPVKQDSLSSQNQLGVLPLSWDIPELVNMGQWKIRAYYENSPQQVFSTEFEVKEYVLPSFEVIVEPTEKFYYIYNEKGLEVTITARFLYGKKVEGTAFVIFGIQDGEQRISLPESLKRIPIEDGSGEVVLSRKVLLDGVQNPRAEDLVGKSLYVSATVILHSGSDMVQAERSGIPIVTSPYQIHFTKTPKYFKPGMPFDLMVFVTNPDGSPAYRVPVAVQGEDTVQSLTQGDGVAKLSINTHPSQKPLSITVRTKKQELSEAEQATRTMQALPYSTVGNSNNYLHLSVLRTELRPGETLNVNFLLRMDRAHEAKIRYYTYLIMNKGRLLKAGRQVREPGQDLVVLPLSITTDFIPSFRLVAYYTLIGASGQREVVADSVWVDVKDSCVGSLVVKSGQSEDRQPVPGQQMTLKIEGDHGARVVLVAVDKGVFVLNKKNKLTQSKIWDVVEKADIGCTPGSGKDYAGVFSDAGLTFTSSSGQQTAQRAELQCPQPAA
Sequence of UniProt P01024 (P01024 749-1663, chain 2 of 2): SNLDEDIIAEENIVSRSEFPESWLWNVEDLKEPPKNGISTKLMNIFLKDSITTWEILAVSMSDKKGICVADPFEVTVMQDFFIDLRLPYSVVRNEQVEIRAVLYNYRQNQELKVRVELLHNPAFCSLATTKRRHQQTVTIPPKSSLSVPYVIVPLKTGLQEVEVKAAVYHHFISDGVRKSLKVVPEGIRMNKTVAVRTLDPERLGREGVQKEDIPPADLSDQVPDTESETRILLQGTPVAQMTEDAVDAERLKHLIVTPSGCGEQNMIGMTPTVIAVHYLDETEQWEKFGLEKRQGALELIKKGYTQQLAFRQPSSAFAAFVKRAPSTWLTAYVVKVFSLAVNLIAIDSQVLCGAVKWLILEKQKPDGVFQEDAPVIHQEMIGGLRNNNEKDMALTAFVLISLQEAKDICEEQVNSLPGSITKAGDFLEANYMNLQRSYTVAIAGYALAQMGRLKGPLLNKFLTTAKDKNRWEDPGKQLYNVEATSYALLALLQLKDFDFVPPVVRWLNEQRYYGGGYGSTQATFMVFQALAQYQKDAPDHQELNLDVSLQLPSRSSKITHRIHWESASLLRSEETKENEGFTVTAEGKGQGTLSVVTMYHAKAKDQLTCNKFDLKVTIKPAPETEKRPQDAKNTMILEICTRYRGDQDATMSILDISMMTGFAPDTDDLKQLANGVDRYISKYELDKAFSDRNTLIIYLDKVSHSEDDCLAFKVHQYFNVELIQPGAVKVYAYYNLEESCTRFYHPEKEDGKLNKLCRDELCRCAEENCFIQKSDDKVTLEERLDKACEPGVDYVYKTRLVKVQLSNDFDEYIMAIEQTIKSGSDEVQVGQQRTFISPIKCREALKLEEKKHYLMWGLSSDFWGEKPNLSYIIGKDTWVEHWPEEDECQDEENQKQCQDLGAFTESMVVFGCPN

For Lufaxin (natural protein), the half-time of dissociation of C3b-B-Lufaxin from the C3b surface (Mg2+) in the test with C3b-B complex [1] worked out at 135 s. In the test with C3b-B complex [2], the half-time of dissociation of C3b-B-Lufaxin from the C3b surface (Ni2+) was found to be 400 s.

factor B (natural protein): in the test with C3b, the half-time of dissociation of C3b-B (Ni2+) was 600 s.
